In US20020173629A1:

Experiments:
[1] = biological target: human EGF-r expressed on the surface of human carcinoma cells (A431, SW948) (human) (UniProt P00533); assay: cell-based or functional assay
[2] = biological target: human EGF-r expressed on the surface of human carcinoma cells (A431, SW948) (human) (UniProt P00533); assay: inhibition of [125I]EGF (0.1 nM) binding to A431 cells
[3] = biological target: Soluble EGF-r purified from A431 cell membranes (Sigma, E-3641) (human) (UniProt P00533); assay: BIAcore, solid phase, antigen immobilised at 228 RU
[4] = biological target: human EGF-r expressed on the surface of human carcinoma cells (A431, SW948) (human) (UniProt P00533); assay: inhibition of [125I]EGF binding to SW948 cells

Substance	IC50 of inhibition of A431 cell proliferation [1] [nM]	IC50 [2] [nM]	Kd [3] [nM]	IC50 [4] [nM]	inhibition of EGF-induced tyrosine phosphorylation of EGFr in A431 cells [1] [nM]	inhibition of SW948 cell growth in vitro [1] [%]
murine monoclonal antibody 528	0.66	15.2				
E7.6.3 antibody (secreted by the hybridoma E7.6.3)	0.125	3	0.057	0.9	133	100
